T1: Tumor-associated calcium signal transducer 2 (UniProt P09758 27-323, limits assumed)
T1 sequence (looked up): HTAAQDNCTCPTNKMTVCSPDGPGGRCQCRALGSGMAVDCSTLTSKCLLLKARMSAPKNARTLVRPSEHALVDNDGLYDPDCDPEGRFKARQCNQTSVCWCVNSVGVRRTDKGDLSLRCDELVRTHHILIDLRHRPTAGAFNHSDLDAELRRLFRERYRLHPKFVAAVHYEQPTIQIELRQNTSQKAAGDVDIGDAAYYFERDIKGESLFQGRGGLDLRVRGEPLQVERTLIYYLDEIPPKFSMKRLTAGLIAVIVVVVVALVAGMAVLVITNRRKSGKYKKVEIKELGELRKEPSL

B1: FDA018-LE19 (antibody, human IgG1, kappa, V domains shown)
VH: QVQLQQSGSELKKPGASVKVSCKASGYTFTNYGMNWVKQAPGQGLKWMGWINTYTGEPTYTDDFKGRFAFSLDTSVSTAYLQISSLKADDTAVYFCARGGFGSSYWYFDVWGQGSLVTVSS
VL: DIQLTQSPSSLSASVGDRVSITCKASQDVSIAVAWYQQKPGKAPKLLIYSASYRYTGVPDRFSGSGSGTDFTLTISSLQPEDFAVYYCQQHYITPLTFGAGTKVEIKR
modifications: linker-drug LE19 coupled to cysteine sulfhydryl groups after reduction of the interchain disulfide bonds; DAR 4.13 for the whole antibody; sites not stated
B2: FDA018-LE20 (antibody, human IgG1, kappa, V domains shown)
VH: QVQLQQSGSELKKPGASVKVSCKASGYTFTNYGMNWVKQAPGQGLKWMGWINTYTGEPTYTDDFKGRFAFSLDTSVSTAYLQISSLKADDTAVYFCARGGFGSSYWYFDVWGQGSLVTVSS
VL: DIQLTQSPSSLSASVGDRVSITCKASQDVSIAVAWYQQKPGKAPKLLIYSASYRYTGVPDRFSGSGSGTDFTLTISSLQPEDFAVYYCQQHYITPLTFGAGTKVEIKR
modifications: linker-drug LE20 coupled to cysteine sulfhydryl groups after reduction of the interchain disulfide bonds; DAR 3.88 for the whole antibody; sites not stated
B3: FDA018-LE21 (antibody, human IgG1, kappa, V domains shown)
VH: QVQLQQSGSELKKPGASVKVSCKASGYTFTNYGMNWVKQAPGQGLKWMGWINTYTGEPTYTDDFKGRFAFSLDTSVSTAYLQISSLKADDTAVYFCARGGFGSSYWYFDVWGQGSLVTVSS
VL: DIQLTQSPSSLSASVGDRVSITCKASQDVSIAVAWYQQKPGKAPKLLIYSASYRYTGVPDRFSGSGSGTDFTLTISSLQPEDFAVYYCQQHYITPLTFGAGTKVEIKR
modifications: linker-drug LE21 coupled to cysteine sulfhydryl groups after reduction of the interchain disulfide bonds; DAR 4.05 for the whole antibody; sites not stated
B4: FDA018-LE22 (antibody, human IgG1, kappa, V domains shown)
VH: QVQLQQSGSELKKPGASVKVSCKASGYTFTNYGMNWVKQAPGQGLKWMGWINTYTGEPTYTDDFKGRFAFSLDTSVSTAYLQISSLKADDTAVYFCARGGFGSSYWYFDVWGQGSLVTVSS
VL: DIQLTQSPSSLSASVGDRVSITCKASQDVSIAVAWYQQKPGKAPKLLIYSASYRYTGVPDRFSGSGSGTDFTLTISSLQPEDFAVYYCQQHYITPLTFGAGTKVEIKR
modifications: linker-drug LE22 coupled to cysteine sulfhydryl groups after reduction of the interchain disulfide bonds; DAR 4.00 for the whole antibody; sites not stated
B5: FDA018-LS13 (antibody, human IgG1, kappa, V domains shown)
VH: QVQLQQSGSELKKPGASVKVSCKASGYTFTNYGMNWVKQAPGQGLKWMGWINTYTGEPTYTDDFKGRFAFSLDTSVSTAYLQISSLKADDTAVYFCARGGFGSSYWYFDVWGQGSLVTVSS
VL: DIQLTQSPSSLSASVGDRVSITCKASQDVSIAVAWYQQKPGKAPKLLIYSASYRYTGVPDRFSGSGSGTDFTLTISSLQPEDFAVYYCQQHYITPLTFGAGTKVEIKR
modifications: linker-drug LS13 (SN-38 payload) coupled to cysteine sulfhydryl groups after reduction of the interchain disulfide bonds; DAR 3.97 for the whole antibody; sites not stated
B6: FDA018-GGFG-Dxd (antibody, human IgG1, kappa, V domains shown)
VH: QVQLQQSGSELKKPGASVKVSCKASGYTFTNYGMNWVKQAPGQGLKWMGWINTYTGEPTYTDDFKGRFAFSLDTSVSTAYLQISSLKADDTAVYFCARGGFGSSYWYFDVWGQGSLVTVSS
VL: DIQLTQSPSSLSASVGDRVSITCKASQDVSIAVAWYQQKPGKAPKLLIYSASYRYTGVPDRFSGSGSGTDFTLTISSLQPEDFAVYYCQQHYITPLTFGAGTKVEIKR
modifications: linker-drug GGFG-Dxd coupled to cysteine sulfhydryl groups after reduction of the interchain disulfide bonds; DAR 4.03 for the whole antibody; sites not stated
B7: FDA018-LE13 (antibody, human IgG1, kappa, V domains shown)
VH: QVQLQQSGSELKKPGASVKVSCKASGYTFTNYGMNWVKQAPGQGLKWMGWINTYTGEPTYTDDFKGRFAFSLDTSVSTAYLQISSLKADDTAVYFCARGGFGSSYWYFDVWGQGSLVTVSS
VL: DIQLTQSPSSLSASVGDRVSITCKASQDVSIAVAWYQQKPGKAPKLLIYSASYRYTGVPDRFSGSGSGTDFTLTISSLQPEDFAVYYCQQHYITPLTFGAGTKVEIKR
modifications: linker-drug LE13 coupled to cysteine sulfhydryl groups after reduction of the interchain disulfide bonds; DAR 4.10 for the whole antibody; sites not stated
B8: FDA018-LE14 (antibody, human IgG1, kappa, V domains shown)
VH: QVQLQQSGSELKKPGASVKVSCKASGYTFTNYGMNWVKQAPGQGLKWMGWINTYTGEPTYTDDFKGRFAFSLDTSVSTAYLQISSLKADDTAVYFCARGGFGSSYWYFDVWGQGSLVTVSS
VL: DIQLTQSPSSLSASVGDRVSITCKASQDVSIAVAWYQQKPGKAPKLLIYSASYRYTGVPDRFSGSGSGTDFTLTISSLQPEDFAVYYCQQHYITPLTFGAGTKVEIKR
modifications: linker-drug LE14 coupled to cysteine sulfhydryl groups after reduction of the interchain disulfide bonds; DAR 4.00 for the whole antibody; sites not stated

Biological target: T1, Tumor-associated calcium signal …
Experiment: cell-based or functional assay

| Binder | IC50 (nM), in vitro killing activity, MDA-MB-468 Cell [nM] | IC50 (nM), in vitro killing activity, NCI-N87 Cell [nM] | IC50 (nM), in vitro killing activity, BXPC3 Cell [nM] |
| --- | --- | --- | --- |
| B1 | 1.03 | – | – |
| B2 | – | 1.15 | – |
| B3 | – | 1.23 | 1.23 |
| B4 | – | 3.25 | 1.69 |
| B5 | 67.4 | – | 61.3 |
| B6 | 1.2 | 1.1 | 0.61 |
| B7 | 2 | 2.34 | 1.23 |
| B8 | 0.8 | 1.08 | 0.5 |

Reference: patent US20250057970A1, “TROP2 TARGETING ANTIBODY-DRUG CONJUGATE, AND PREPARATION METHOD AND USE THEREFOR” (priority 2020, published 2025)
